Source: patent US10646600B2, “HER2 polypeptides useful for imaging and monitoring tumors and cancers” (GE HEALTHCARE LIMITED, priority 2013, dated 2020)
Entries after “also recorded” stand apart in the source; their conditions may differ.

Columns and labels:
Type in all cases: in vivo, mice
[1] = tested on: MCF7 and MCF7-p95HER2 xenografts; experiment: PET-CT imaging and kinetic modeling, HER2 negative xenografts; details: HER2 negative tumors
Text: (§1) Mice were anesthetized through isoflurane inhalation and scanned on a dedicated small animal PET-CT scanner (Siemens Multimodality Inveon, Erlangen, Germany). Low dose CT scans were first acquired (80 kVp, 0.5 mA, 220 degree rotation, 600 ms per degree exposure time, 80 μm reconstruction pixel size) for PET attenuation correction and to obtain an anatomical reference. PET images were acquired following a bolus i.v. injection of approximately 3.7 MBq [^18F]GE-226 in the tail vein. Dynamic emission scans were acquired in list mode format over 60 minutes. The acquired data were sorted into 0.5-mm sinogram bins and 19 time frames for image reconstruction by filtered back projection (4×15 seconds and 4×60 seconds followed by 11×300 seconds). The Siemens Inveon Research Workplace software was used for visualization of radiotracer uptake. 30 to 60-minute cumulative images of the dynamic data were employed to define 3-dimensional (3D) regions of interest (ROI). […] The count densities were averaged for all ROIs at each time point to obtain time versus radioactivity curves (TAC). Tumor TACs were normalized to injected dose measured by a VDC-304 dose calibrator (Veenstra Instruments, Joure, Netherlands) and normalized uptake was expressed as percentage injected dose per mL tissue (NUV; % ID/mL). […]

MCF7-HER2 xenografts = experiment: PET-CT imaging and kinetic modeling, MCF7-HER2 xenografts
Text: as §1

Biodistribution, tissues = experiment: Biodistribution, tissues
Text: Mice were sacrificed at different time points by exsanguination.

MDA-MB-361 xenografts = experiment: PET-CT imaging and kinetic modeling, MDA-MB-361 xenografts
Text: as §1

[2] = two-tissue irreversible compartmental model

For “[^18F]GE-226: HER2-binding 18F-radiolabelled Affibody molecule ZHER2:2891”, the NUV60 ([1]; PET, 60 minutes) was 6.1±0.7 % ID/mL, the “Ki (net irreversible uptake rate)” value [1, 2] was 0.0069±0.0014 mL/cm^3/min and the NUV60 (MCF7-HER2 xenografts; PET, 60 minutes) was 10.9±1.5 % ID/mL. The “Ki (net irreversible uptake rate)” value (MCF7-HER2 xenografts; [2]) was 0.015±0.0035 mL/cm^3/min, the “Tissue uptake, Blood” value (Biodistribution, tissues; 5 min) was 0.82 ± 0.83 % ID/g tissue and the “Tissue uptake, Bone” value (Biodistribution, tissues; 5 min) was 1.20 ± 1.08 % ID/g tissue. The “Tissue uptake, Brain” value (Biodistribution, tissues; 5 min) was 0.33 ± 0.35 % ID/g tissue, the “Tissue uptake, Caecum empty” value (Biodistribution, tissues; 5 min) was 3.24 ± 3.76 % ID/g tissue and the “Tissue uptake, Caecum full” value (Biodistribution, tissues; 5 min) was 0.97 ± 1.09 % ID/g tissue. For the same substance, the “Tissue uptake, Colon empty” value (Biodistribution, tissues; 5 min) was 2.68 ± 2.44 % ID/g tissue, the “Tissue uptake, Colon full” value (Biodistribution, tissues; 5 min) was 2.40 ± 2.53 % ID/g tissue and the “Tissue uptake, Duodenum empty” value (Biodistribution, tissues; 5 min) was 3.21 ± 3.50 % ID/g tissue. The “Tissue uptake, Duodenum full” value (Biodistribution, tissues; 5 min) was 2.55 ± 2.17 % ID/g tissue, the “Tissue uptake, Gallbladder” value (Biodistribution, tissues; 5 min) was 3.22 ± 3.29 % ID/g tissue and the “Tissue uptake, Heart” value (Biodistribution, tissues; 5 min) was 3.10 ± 2.83 % ID/g tissue. For the same substance, the “Tissue uptake, Jejunum empty” value (Biodistribution, tissues; 5 min) was 2.48 ± 2.81 % ID/g tissue, the “Tissue uptake, Jejunum full” value (Biodistribution, tissues; 5 min) was 1.68 ± 1.38 % ID/g tissue and the “Tissue uptake, Kidney” value (Biodistribution, tissues; 5 min) was 15.02 ± 6.99 % ID/g tissue. The “Tissue uptake, Liver” value (Biodistribution, tissues; 5 min) was 2.90 ± 2.96 % ID/g tissue, the “Tissue uptake, Lung” value (Biodistribution, tissues; 5 min) was 3.90 ± 3.84 % ID/g tissue and the “Tissue uptake, Muscle” value (Biodistribution, tissues; 5 min) was 0.88 ± 0.81 % ID/g tissue. For the same substance, the “Tissue uptake, Plasma” value (Biodistribution, tissues; 5 min) was 12.71 ± 14.90 % ID/g tissue, the “Tissue uptake, Spleen” value (Biodistribution, tissues; 5 min) was 3.18 ± 2.66 % ID/g tissue and the “Tissue uptake, Stomach empty” value (Biodistribution, tissues; 5 min) was 2.02 ± 1.62 % ID/g tissue. The “Tissue uptake, Stomach full” value (Biodistribution, tissues; 5 min) was 1.47 ± 1.85 % ID/g tissue, the “Tissue uptake, Urine” value (Biodistribution, tissues; 5 min) was 148.33 ± 127.65 % ID/g tissue and the “Tissue uptake, Blood” value (Biodistribution, tissues; 15 min) was 2.00 ± 0.75 % ID/g tissue. The “Tissue uptake, Bone” value (Biodistribution, tissues; 15 min) was 3.05 ± 0.88 % ID/g tissue, the “Tissue uptake, Brain” value (Biodistribution, tissues; 15 min) was 0.34 ± 0.11 % ID/g tissue and the “Tissue uptake, Caecum empty” value (Biodistribution, tissues; 15 min) was 4.94 ± 2.84 % ID/g tissue. For the same substance, the “Tissue uptake, Caecum full” value (Biodistribution, tissues; 15 min) was 1.68 ± 0.85 % ID/g tissue, the “Tissue uptake, Colon empty” value (Biodistribution, tissues; 15 min) was 5.78 ± 2.99 % ID/g tissue and the “Tissue uptake, Colon full” value (Biodistribution, tissues; 15 min) was 3.43 ± 1.89 % ID/g tissue. For the same substance, the “Tissue uptake, Duodenum empty” value (Biodistribution, tissues; 15 min) was 5.16 ± 2.36 % ID/g tissue, the “Tissue uptake, Duodenum full” value (Biodistribution, tissues; 15 min) was 4.07 ± 1.48 % ID/g tissue and the “Tissue uptake, Gallbladder” value (Biodistribution, tissues; 15 min) was 5.10 ± 1.77 % ID/g tissue. The “Tissue uptake, Heart” value (Biodistribution, tissues; 15 min) was 3.52 ± 1.19 % ID/g tissue, the “Tissue uptake, Jejunum empty” value (Biodistribution, tissues; 15 min) was 4.92 ± 1.33 % ID/g tissue and the “Tissue uptake, Jejunum full” value (Biodistribution, tissues; 15 min) was 2.71 ± 1.01 % ID/g tissue. For the same substance, the “Tissue uptake, Kidney” value (Biodistribution, tissues; 15 min) was 65.82 ± 18.48 % ID/g tissue, the “Tissue uptake, Liver” value (Biodistribution, tissues; 15 min) was 4.58 ± 1.77 % ID/g tissue and the “Tissue uptake, Lung” value (Biodistribution, tissues; 15 min) was 5.99 ± 2.10 % ID/g tissue. The “Tissue uptake, Muscle” value (Biodistribution, tissues; 15 min) was 2.05 ± 0.86 % ID/g tissue, the “Tissue uptake, Plasma” value (Biodistribution, tissues; 15 min) was 9.41 ± 3.75 % ID/g tissue and the “Tissue uptake, Spleen” value (Biodistribution, tissues; 15 min) was 3.94 ± 3.24 % ID/g tissue. The “Tissue uptake, Stomach empty” value (Biodistribution, tissues; 15 min) was 3.75 ± 1.38 % ID/g tissue, the “Tissue uptake, Stomach full” value (Biodistribution, tissues; 15 min) was 2.68 ± 1.04 % ID/g tissue and the “Tissue uptake, Urine” value (Biodistribution, tissues; 15 min) was 283.73 ± 243.00 % ID/g tissue. The “Tissue uptake, Blood” value (Biodistribution, tissues; 30 min) was 0.53 ± 0.35 % ID/g tissue, the “Tissue uptake, Bone” value (Biodistribution, tissues; 30 min) was 1.59 ± 0.94 % ID/g tissue and the “Tissue uptake, Brain” value (Biodistribution, tissues; 30 min) was 0.13 ± 0.08 % ID/g tissue. The “Tissue uptake, Caecum empty” value (Biodistribution, tissues; 30 min) was 1.92 ± 0.89 % ID/g tissue, the “Tissue uptake, Caecum full” value (Biodistribution, tissues; 30 min) was 0.60 ± 0.27 % ID/g tissue and the “Tissue uptake, Colon empty” value (Biodistribution, tissues; 30 min) was 1.80 ± 0.94 % ID/g tissue. The “Tissue uptake, Colon full” value (Biodistribution, tissues; 30 min) was 1.00 ± 0.59 % ID/g tissue, the “Tissue uptake, Duodenum empty” value (Biodistribution, tissues; 30 min) was 2.91 ± 1.27 % ID/g tissue and the “Tissue uptake, Duodenum full” value (Biodistribution, tissues; 30 min) was 2.87 ± 1.18 % ID/g tissue. For the same substance, the “Tissue uptake, Gallbladder” value (Biodistribution, tissues; 30 min) was 2.74 ± 1.06 % ID/g tissue, the “Tissue uptake, Heart” value (Biodistribution, tissues; 30 min) was 1.27 ± 0.60 % ID/g tissue and the “Tissue uptake, Jejunum empty” value (Biodistribution, tissues; 30 min) was 1.87 ± 1.12 % ID/g tissue. For the same substance, the “Tissue uptake, Jejunum full” value (Biodistribution, tissues; 30 min) was 1.73 ± 1.25 % ID/g tissue, the “Tissue uptake, Kidney” value (Biodistribution, tissues; 30 min) was 23.54 ± 11.70 % ID/g tissue and the “Tissue uptake, Liver” value (Biodistribution, tissues; 30 min) was 2.27 ± 1.23 % ID/g tissue. The “Tissue uptake, Lung” value (Biodistribution, tissues; 30 min) was 3.15 ± 1.84 % ID/g tissue, the “Tissue uptake, Muscle” value (Biodistribution, tissues; 30 min) was 0.78 ± 0.48 % ID/g tissue and the “Tissue uptake, Plasma” value (Biodistribution, tissues; 30 min) was 4.10 ± 2.23 % ID/g tissue. The “Tissue uptake, Spleen” value (Biodistribution, tissues; 30 min) was 1.71 ± 0.90 % ID/g tissue, the “Tissue uptake, Stomach empty” value (Biodistribution, tissues; 30 min) was 1.56 ± 0.86 % ID/g tissue and the “Tissue uptake, Stomach full” value (Biodistribution, tissues; 30 min) was 1.28 ± 0.92 % ID/g tissue. For the same substance, the “Tissue uptake, Urine” value (Biodistribution, tissues; 30 min) was 438.65 ± 219.01 % ID/g tissue, the “Tissue uptake, Blood” value (Biodistribution, tissues; 60 min) was 0.32 ± 0.26 % ID/g tissue and the “Tissue uptake, Bone” value (Biodistribution, tissues; 60 min) was 0.68 ± 0.40 % ID/g tissue. For the same substance, the “Tissue uptake, Brain” value (Biodistribution, tissues; 60 min) was 0.10 ± 0.07 % ID/g tissue, the “Tissue uptake, Caecum empty” value (Biodistribution, tissues; 60 min) was 0.87 ± 0.53 % ID/g tissue and the “Tissue uptake, Caecum full” value (Biodistribution, tissues; 60 min) was 0.36 ± 0.22 % ID/g tissue. The “Tissue uptake, Colon empty” value (Biodistribution, tissues; 60 min) was 1.25 ± 0.94 % ID/g tissue, the “Tissue uptake, Colon full” value (Biodistribution, tissues; 60 min) was 0.84 ± 0.59 % ID/g tissue and the “Tissue uptake, Duodenum empty” value (Biodistribution, tissues; 60 min) was 2.29 ± 2.29 % ID/g tissue. For the same substance, the “Tissue uptake, Duodenum full” value (Biodistribution, tissues; 60 min) was 1.53 ± 0.59 % ID/g tissue, the “Tissue uptake, Gallbladder” value (Biodistribution, tissues; 60 min) was 3.92 ± 3.29 % ID/g tissue and the “Tissue uptake, Heart” value (Biodistribution, tissues; 60 min) was 0.64 ± 0.40 % ID/g tissue. The “Tissue uptake, Jejunum empty” value (Biodistribution, tissues; 60 min) was 0.86 ± 0.46 % ID/g tissue, the “Tissue uptake, Jejunum full” value (Biodistribution, tissues; 60 min) was 0.99 ± 0.39 % ID/g tissue and the “Tissue uptake, Kidney” value (Biodistribution, tissues; 60 min) was 11.94 ± 10.30 % ID/g tissue. The “Tissue uptake, Liver” value (Biodistribution, tissues; 60 min) was 1.64 ± 1.49 % ID/g tissue, the “Tissue uptake, Lung” value (Biodistribution, tissues; 60 min) was 1.81 ± 1.32 % ID/g tissue and the “Tissue uptake, Muscle” value (Biodistribution, tissues; 60 min) was 0.50 ± 0.45 % ID/g tissue. The “Tissue uptake, Plasma” value (Biodistribution, tissues; 60 min) was 1.76 ± 1.06 % ID/g tissue, the “Tissue uptake, Spleen” value (Biodistribution, tissues; 60 min) was 0.88 ± 0.56 % ID/g tissue and the “Tissue uptake, Stomach empty” value (Biodistribution, tissues; 60 min) was 0.86 ± 0.72 % ID/g tissue. The “Tissue uptake, Stomach full” value (Biodistribution, tissues; 60 min) was 0.53 ± 0.29 % ID/g tissue, the “Tissue uptake, Urine” value (Biodistribution, tissues; 60 min) was 535.62 ± 303.04 % ID/g tissue and the “kidney radioactivity levels versus tumors” value (Biodistribution, tissues; 60 min) was “comparable to levels in tumors”. For the same substance, the “excretion / clearance” value (Biodistribution, tissues; mouse, in vivo) was “predominately and rapidly excreted via the renal route; also recorded: rapid renal clearance”, the “uptake in other organs, including the liver” value (Biodistribution, tissues; mouse, in vivo) was “negligible” and the NUV60 (MDA-MB-361 xenografts; PET, 60 minutes) was 18.2±3.4 % ID/mL. For the same substance, the “Ki (net irreversible uptake rate)” value (MDA-MB-361 xenografts; [2]) was 0.025±0.0052 mL/cm^3/min.
